Reference: article doi:10.1101/116491 (bioRxiv, 2017)

T1: OCP variant devoid of the N-terminal extension, orange fraction, ΔNTE(O) (Synechocystis, UniProt P74102 21-317)
T1 sequence: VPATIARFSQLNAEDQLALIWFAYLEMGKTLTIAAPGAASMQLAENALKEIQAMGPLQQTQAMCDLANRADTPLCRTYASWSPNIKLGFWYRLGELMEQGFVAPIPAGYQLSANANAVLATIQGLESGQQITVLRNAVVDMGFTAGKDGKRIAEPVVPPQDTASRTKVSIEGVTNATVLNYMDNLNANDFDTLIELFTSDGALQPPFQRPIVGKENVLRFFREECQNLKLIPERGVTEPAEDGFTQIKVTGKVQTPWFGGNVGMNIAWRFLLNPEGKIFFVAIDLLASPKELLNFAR

T2: Orange Carotenoid Protein, wildtype, His6-tagged, Synechocystis (OCP^WT) (Synechocystis, UniProt P74102 1-317)
T2 sequence: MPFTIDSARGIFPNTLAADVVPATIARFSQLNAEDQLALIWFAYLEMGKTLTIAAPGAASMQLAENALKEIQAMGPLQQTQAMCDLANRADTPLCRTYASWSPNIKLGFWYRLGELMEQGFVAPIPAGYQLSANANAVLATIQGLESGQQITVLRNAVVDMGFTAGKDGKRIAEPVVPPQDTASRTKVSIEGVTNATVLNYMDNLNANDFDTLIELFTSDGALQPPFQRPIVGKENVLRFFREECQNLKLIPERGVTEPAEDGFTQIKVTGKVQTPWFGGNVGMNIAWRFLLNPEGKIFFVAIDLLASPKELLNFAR

B1: Fluorescence Recovery Protein (FRP), His6-tagged, Synechocystis (natural protein)
chain: LQTAEAPWSQAETQSAHALFRKAYQRELDGLLATVQAQASQITQIDDLWKLHDFLSAKRHEIDGKYDDRQSVIIFVFAQLLKEGLVQAEELTFLAADKQSKIKALARL

What was measured:
[1] = molecular target: OCP variant devoid of the N-terminal extension, purple fraction, ΔNTE(P) (Synechocystis) (UniProt P74102); assay: SEC
[2] = molecular target: T1, OCP variant devoid of the N-terminal …; assay: SEC
[3] = molecular target: T2, Orange Carotenoid Protein, wildtype, …; assay: cross-linking
cross-linking = molecular target: the molecule itself; assay: cross-linking

| Molecule | stoichiometry N [1] | Kd [2] [nM] | stoichiometry N [2] | stoichiometry N [3] | stoichiometry N (cross-linking) |
| --- | --- | --- | --- | --- | --- |
| OCP variant devoid of the N-terminal extension, purple fraction, ΔNTE(P) (from UniProt P74102 21-317) (domain or fragment) | 2 | – | – | – | – |
| B1 | – | < 1000 | 1 | 1 | 2 |
